Consider four proteins from paper doi:10.1101/2024.07.10.602939 (bioRxiv, 2024).

As usually defined, the stoichiometry N is a count of units in the complex or per binding partner.

This data set concerns the molecule itself. The data set is described as follows: SEC. For orientation: Size exclusion chromatography separates by hydrodynamic size, large species first.

B1: oxidized TRC40 from Danio rerio (natural protein)
chain: not shown
modifications: oxidized cysteines: intra- and intermolecular disulfide bonds (positions not given)
Turning to B1, the “stoichiometry N” value is at least 4.

B2: reduced TRC40 from Danio rerio (natural protein)
chain: not shown
With B2, the “stoichiometry N” value was found to be 2.

B3: oxidized Get3 from Saccharomyces cerevisiae (natural protein, UniProt Q12154 1-354, looked up)
chain: MDLTVEPNLHSLITSTTHKWIFVGGKGGVGKTTSSCSIAIQMALSQPNKQFLLISTDPAHNLSDAFGEKFGKDARKVTGMNNLSCMEIDPSAALKDMNDMAVSRANNNGSDGQGDDLGSLLQGGALADLTGSIPGIDEALSFMEVMKHIKRQEQGEGETFDTVIFDTAPTGHTLRFLQLPNTLSKLLEKFGEITNKLGPMLNSFMGAGNVDISGKLNELKANVETIRQQFTDPDLTTFVCVCISEFLSLYETERLIQELISYDMDVNSIIVNQLLFAENDQEHNCKRCQARWKMQKKYLDQIDELYEDFHVVKMPLCAGEIRGLNNLTKFSQFLNKEYNPITDGKVIYELEDKE
modifications: oxidized cysteines (positions not given)
As for B3, the binding result is reported as “binds”.

B4: reduced Get3 from Saccharomyces cerevisiae (natural protein, UniProt Q12154 1-354, looked up)
chain: B3 chain
Take B4: the binding result is “binds”.
